Results on three molecules are retold here after paper PMC12817928, “Demonstration of in vivo efficacy, cryo-EM-epitope identification, and breadth of two anti-alphavirus bispecific single domain antibodies” (Journal of Virology, 2025).

The chains are these.
B1: sdAb V2C3 (VHH)
VHH: DVQLQASGGGSVQAGGSLRLSCVASQNLFEYYTMGWYRQVPGSQRERVALINNGGSNVAGSVEGRFTISRDNAKNSIYLQMNNLKPEDSAVYYCRAFGPADYWGQGTQVTVSS
notes: source: ClearColi BL21(DE3), purified (Ni Sepharose, MEP HyperCel, SEC)
B2: sdAb V3A8f (VHH)
VHH: DVQLQASGGGSVQAGGSLRLSCAASGHSFANYHVAWIRQTPGKEREFVGSASRRDDSTYYADFALGRFIISRDNDINTAYLQMNSLKPEDSAVYYCVAAVMAQTTQGWTTDYDLRGQGTQVTVSS
B3: sdAb V2B3 (VHH)
VHH: EVQLQASGGGLVQAGGSLRLSCAASGSIVSINVMAWYRQSPGKERELVAKSSGPFTLYADSVKGRFTISNDAAKNTVDLQMNSLKPEDTAVYYCNAEGLRYPSGTYGPSAVWGQGTQVTVSS
notes: as for B1

For the first test, the target named is T1, VEEV E2 envelope glycoprotein (strain TC83), in the VLP (Venezuelan equine encephalitis virus, …, strain).
T1 construct: also called E2 subunit
T1 chain 1: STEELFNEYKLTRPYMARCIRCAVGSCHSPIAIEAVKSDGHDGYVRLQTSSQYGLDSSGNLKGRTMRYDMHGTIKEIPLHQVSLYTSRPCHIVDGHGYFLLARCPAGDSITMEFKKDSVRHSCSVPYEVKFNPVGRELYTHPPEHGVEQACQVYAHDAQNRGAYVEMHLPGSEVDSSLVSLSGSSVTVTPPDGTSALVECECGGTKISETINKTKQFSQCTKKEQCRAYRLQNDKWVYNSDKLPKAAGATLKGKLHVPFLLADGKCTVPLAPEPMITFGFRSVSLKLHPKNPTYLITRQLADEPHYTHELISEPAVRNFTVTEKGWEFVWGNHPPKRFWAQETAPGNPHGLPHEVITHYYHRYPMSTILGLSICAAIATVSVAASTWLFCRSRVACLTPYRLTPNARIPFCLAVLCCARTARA
T1 chain 2: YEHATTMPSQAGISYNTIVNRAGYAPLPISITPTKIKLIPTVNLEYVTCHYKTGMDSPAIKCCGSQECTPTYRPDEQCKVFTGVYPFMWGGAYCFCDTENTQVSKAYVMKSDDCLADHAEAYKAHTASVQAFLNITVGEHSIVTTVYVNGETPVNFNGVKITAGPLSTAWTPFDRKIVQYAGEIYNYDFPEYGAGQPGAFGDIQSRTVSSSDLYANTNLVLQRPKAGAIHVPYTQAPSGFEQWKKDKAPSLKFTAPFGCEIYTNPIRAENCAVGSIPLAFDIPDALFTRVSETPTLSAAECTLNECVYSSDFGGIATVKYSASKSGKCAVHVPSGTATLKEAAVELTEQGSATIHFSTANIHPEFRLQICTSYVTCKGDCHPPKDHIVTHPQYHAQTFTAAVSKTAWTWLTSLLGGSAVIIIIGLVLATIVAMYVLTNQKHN
Briefly: cryo-EM structure. The conditions noted are these: both partners purified.
Turning to B1, the binding result is “binds”.

As for B2, the binding result is on record as “binds”.

On to B3, for which the binding result is on record as “binds”.

The next test has as its target T2, VEEV E1 envelope glycoprotein (strain TC83), in the VLP (Venezuelan equine encephalitis virus, …).
T2 construct: also called E1 subunit
T2 chain 1: T1 chain 2
T2 chain 2: T1 chain 1
Briefly: cryo-EM structure. The note with it: both partners purified.
B1: the binding result was “binds”.

Turning to B2, the binding result is recorded as “binds”.

B3: the binding result was “binds”.

The next test has as its target T3, VEEV virus-like particle (VLP), strain TC83 (subtype IAB) (Venezuelan equine encephalitis virus, …, strain).
T3 construct: also called VEEV VLP; VEEV IAB VLP
T3 chain 1: T1 chain 2
T3 chain 2: T1 chain 1
Briefly: cryo-EM structure. The conditions noted are these: both partners purified.
Take B1: the binding result is “binds”.

Regarding B2, the binding result is “binds”.

On to B3, for which the binding result was “binds”.
